The text below walks through data of patent publication US20050282743A1, “Molecular interactions in cells” (Arbor Vita Corporation, priority 2001, published 2005).

Common to all, as to assay type: binding
For assay [1], the target named is T1, PDZ protein (GST-PDZ fusion) (Homo sapiens, UniProt Q9P202).
T1 construct: made in house; host or cells: E. coli (DH5alpha, BL21 or JM109)
T1 sequence (Q9P202 1-907): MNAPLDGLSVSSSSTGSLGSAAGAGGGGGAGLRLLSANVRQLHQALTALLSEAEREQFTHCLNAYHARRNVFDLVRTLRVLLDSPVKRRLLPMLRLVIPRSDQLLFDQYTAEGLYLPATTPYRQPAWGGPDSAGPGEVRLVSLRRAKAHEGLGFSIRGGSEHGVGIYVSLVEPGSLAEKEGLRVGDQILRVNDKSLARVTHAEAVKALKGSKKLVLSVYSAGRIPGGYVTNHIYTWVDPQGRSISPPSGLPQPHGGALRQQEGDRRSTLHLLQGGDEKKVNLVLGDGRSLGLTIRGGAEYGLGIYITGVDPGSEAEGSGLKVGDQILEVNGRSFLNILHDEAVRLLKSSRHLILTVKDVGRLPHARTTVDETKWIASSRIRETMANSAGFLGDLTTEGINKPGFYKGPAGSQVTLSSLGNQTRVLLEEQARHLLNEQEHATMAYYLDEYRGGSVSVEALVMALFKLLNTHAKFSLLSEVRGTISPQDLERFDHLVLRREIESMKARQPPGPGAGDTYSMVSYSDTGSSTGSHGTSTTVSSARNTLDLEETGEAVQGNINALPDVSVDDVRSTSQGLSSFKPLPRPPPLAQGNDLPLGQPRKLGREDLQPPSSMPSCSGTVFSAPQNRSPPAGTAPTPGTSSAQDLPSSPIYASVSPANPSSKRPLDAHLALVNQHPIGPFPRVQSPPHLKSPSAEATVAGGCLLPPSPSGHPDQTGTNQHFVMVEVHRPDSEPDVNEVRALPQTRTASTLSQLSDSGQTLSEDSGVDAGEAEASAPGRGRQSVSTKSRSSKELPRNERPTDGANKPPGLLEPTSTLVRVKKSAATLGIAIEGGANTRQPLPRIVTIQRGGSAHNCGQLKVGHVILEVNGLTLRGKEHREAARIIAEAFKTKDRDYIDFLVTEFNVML
Kind of assay: G' assay (10 uM PL peptide), results of TABLE 7 and TABLE 12. The following applies: PDZ KIAA1526, PDZ Domain 1. The source says:
(§1) Each page of TABLE 7 and 12 includes seven columns. The columns in each table are numbered from left to right such that the left-most column in each table is column 1 and the right-most column in each table is column 7. Thus, the first column in each table is labeled “AVC ID”; this column simply lists an internal reference number used to refer to the carboxyl-terminal amino acids of the PL proteins listed in the second column. […] All PL peptides were biotinylated at the amino-terminus and the sequences of these PL peptides are presented in TABLE 8 (see end of specification).
(§2) This column provides the gene name for the PDZ portion of the GST-PDZ fusion that interacts with the PDZ-ligand to the left. For PDZ domain-containing proteins with multiple domains, the domain number is listed to the right of the PDZ (i.e., in column 5 labeled “PDZ Domain”), and indicates the PDZ domain number when numbered from the amino-terminus to the carboxy-terminus.
(§3) The third column labeled “Peptide Optimal Concentration” in the tables is a number reflective of the binding interaction between the PL protein and PDZ protein. […] The column labeled “Protein Optimal Concentration” refers to the protein concentration used to assay PL interaction (in ug/ml); a ‘0’ is indicative of 5 ug/ml protein concentration; any other value represents the concentration (in ug/ml) used to determine the dissociation constant for a given interaction.
(§4) Finally, the seventh column labeled “Classification” is another measure of the level of binding. In particular, it provides an absorbance value at 450 nm which indicates the amount of PL peptide bound to the PDZ protein. The following numerical values have the following meanings: ‘1’—A450 nm 0-1; ‘2’—A450 nm 1-2; ‘3’—A450 nm 2-3; ‘4’—A450 nm 3-4; ‘5’—A450 nm of 4 more than 2× repeated; ‘0’—A450 nm 0, i.e., not found to interact. Thus, higher numbers indicate stronger interactions.
(§5) For convenience, the assay conditions described in this section are referred to as the “G′ assay” and the “G″ assay,” with the specific conditions described in the preceding section on G assays being referred to as the “G^0 assay.” The “G′ assay” is identical to the “G^0 assay” except at step (2) the peptide concentration is 10 uM instead of 20 uM.

Assay [2] relates to PDZ protein (GST-PDZ fusion). The assay is described as above. As to conditions: PDZ SHANK, PDZ Domain 1.
Text: as §1, §2, §3, §4, §5

Assay [3] addresses T2, PDZ protein (GST-PDZ fusion) (Homo sapiens, UniProt Q9NZN5).
T2 construct: made in house; host or cells: E. coli (DH5alpha, BL21 or JM109)
Described as above. As to conditions: PDZ KIAA0382, PDZ Domain 1.
Text: as §1, §2, §3, §4, §5

Assay [4] has as its target T3, PDZ protein (GST-PDZ fusion) (Homo sapiens, UniProt Q6P0Q8).
T3 construct: made in house; host or cells: E. coli (DH5alpha, BL21 or JM109)
The assay is described as above.
Text: as §1, §2, §3, §4, §5

A further assay deals with T4, PSD-95 (Homo sapiens, UniProt P78352).
T4 construct: protein spans from amino terminal end of first PDZ domain to carboxy-terminal end of third PDZ domain in frame with GST in vector; made in house; host or cells: E. coli DH5alpha
T4 sequence (P78352 58-398 limits assumed): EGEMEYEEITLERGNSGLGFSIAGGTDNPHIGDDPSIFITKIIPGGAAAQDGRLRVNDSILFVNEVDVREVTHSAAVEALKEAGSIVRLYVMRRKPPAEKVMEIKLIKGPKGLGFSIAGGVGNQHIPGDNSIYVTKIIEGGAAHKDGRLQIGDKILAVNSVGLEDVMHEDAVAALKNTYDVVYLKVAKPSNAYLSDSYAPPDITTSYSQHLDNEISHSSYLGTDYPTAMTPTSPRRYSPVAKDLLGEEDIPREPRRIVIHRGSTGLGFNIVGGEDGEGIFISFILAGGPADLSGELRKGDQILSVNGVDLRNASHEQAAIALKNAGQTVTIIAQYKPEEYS
The assay is described as follows: G assay competition of short unlabeled peptides with biotinylated 20-mers (Example 6, TABLE 6). As to conditions: for % binding: 100 = no competitor. The source says: (§6) The potential for unlabeled 8-mers and 3-mers to compete for binding with biotinylated 20-mers to PDZ domains was examined. Interactions between a PDZ domain and two or more biotinylated peptides mimicking PDZ ligands identified through the ‘G Assay’ were used as model interactions. Short, 3 or 8 amino acid, unlabeled peptides were synthesized by standard techniques and used at variable concentrations with a set concentration of biotinylated 20-mer. Ability of both the 3-mer and 8-mer to inhibit longer peptide binding was observed, making PDZ:PL interactions an attractive target for design of small molecule or peptide therapeutics.
(§7) Peptides representing the C-terminal 3, 8 or 20 amino acids of a PDZ ligand were synthesized by standard FMOC chemistry and biotinylated if not used as an unlabeled competitor. Peptides three amino acids in length were acetylated to more properly mimic the peptide bond without introducing an amino-terminal charged group. Peptides were purified by reverse phase high performance liquid chromatography (HPLC) using a Vydac 218TP C18 Reversed Phase column having the dimensions of 10*25 mm, 5 um. Approximately 40 mg of peptide was dissolved in 2.0 ml of and aqueous solution of 49.9% acetonitrile and 0.1% Tri-Fluoro acetic acid (TFA). This solution was then injected into the HPLC machine through a […] syringe filter (Millipore). Buffers used to get a good separation are (A) distilled water with 0.1% TFA and (B) 0.1% TFA with Acetonitrile.
(§8) The G Assay was performed as described in EXAMPLE 3 with the exception that when a short competitor was used, 30 ul of competitor peptide (at twice the final concentration) was mixed with 30 ul biotinylated 20-mer (at twice the final concentration) and then added to the well.
(§9) PSD-95 and DLG-1 were incubated in the wells at 5 ug/ml as described in the G Assay protocol. Biotinylated 20-mer peptides used were 20 uM CLASP-2, 20 uM CD46, 10 uM CD95, and 10 uM KV1.3 (find sequences of peptides in TABLE 8). Competitors (unlabeled, short peptides) tested against each of the biotinylated peptides were 50 uM 8-mer of CD95, 100 uM 8-mer of CD46, 50 uM 8-mer of CLASP-2, and 1 mM and 500 uM acetylated 3-mer of CLASP-2. To deduce sequences, refer to TABLE 8. All absorbances were read at 450 nm after stopping TMB detection reaction at 30 min. Results were normalized in each group by dividing its A450 by the A450 of the PDZ/peptide binding in the absence of competitor and converting to percentage by multiplying by 100.

In the next assay the target is T5, DLG-1 (Homo sapiens, UniProt Q12959).
T5 construct: protein spans from amino terminal end of first PDZ domain to carboxy-terminal end of third PDZ domain in frame with GST in vector; made in house; host or cells: E. coli DH5alpha
T5 sequence (Q12959 224-546 limits assumed): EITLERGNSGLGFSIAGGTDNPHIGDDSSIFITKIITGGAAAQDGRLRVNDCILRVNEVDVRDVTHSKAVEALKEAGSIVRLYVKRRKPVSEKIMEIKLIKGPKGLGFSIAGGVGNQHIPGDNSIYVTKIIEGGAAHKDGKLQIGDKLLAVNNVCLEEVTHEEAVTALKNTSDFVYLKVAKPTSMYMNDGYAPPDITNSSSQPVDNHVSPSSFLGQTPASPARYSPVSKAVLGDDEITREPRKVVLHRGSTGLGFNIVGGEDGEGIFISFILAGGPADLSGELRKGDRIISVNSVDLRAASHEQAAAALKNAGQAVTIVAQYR
The assay is described as above. As to conditions: 100 = no competitor.
Text: as §6, §7, §8, §9

Setting [5] is: biotinylated 20-mer CD46 20 uM, competitor 500 uM.
Setting [6] is: biotinylated 20-mer CD46 20 uM, competitor 1000 uM.
[7] abbreviates: biotinylated 20-mer CD95 10 uM, competitor 500 uM.
The mark [8] stands for this setting: biotinylated 20-mer CD95 10 uM, competitor 1000 uM.
The mark [9] stands for this setting: biotinylated 20-mer CLASP-2 20 uM, competitor 500 uM.
[10] abbreviates: biotinylated 20-mer CLASP-2 20 uM, competitor 1000 uM.
Setting [11] is: biotinylated 20-mer CD46 20 uM, competitor 100 uM.
The mark [12] stands for this setting: biotinylated 20-mer CD95 10 uM, competitor 100 uM.
[13] abbreviates: biotinylated 20-mer CLASP-2 20 uM, competitor 100 uM.
[14] abbreviates: biotinylated 20-mer KV1.3 10 uM, competitor 100 uM.

Ends that are not written are not given here. * marks the point of attachment. Biotin = O=C1N[C@H]2[C@H](CS[C@H]2CCCCC(=O)*)N1

T3 sequence (Q6P0Q8 whole entry, the tested form may be a part): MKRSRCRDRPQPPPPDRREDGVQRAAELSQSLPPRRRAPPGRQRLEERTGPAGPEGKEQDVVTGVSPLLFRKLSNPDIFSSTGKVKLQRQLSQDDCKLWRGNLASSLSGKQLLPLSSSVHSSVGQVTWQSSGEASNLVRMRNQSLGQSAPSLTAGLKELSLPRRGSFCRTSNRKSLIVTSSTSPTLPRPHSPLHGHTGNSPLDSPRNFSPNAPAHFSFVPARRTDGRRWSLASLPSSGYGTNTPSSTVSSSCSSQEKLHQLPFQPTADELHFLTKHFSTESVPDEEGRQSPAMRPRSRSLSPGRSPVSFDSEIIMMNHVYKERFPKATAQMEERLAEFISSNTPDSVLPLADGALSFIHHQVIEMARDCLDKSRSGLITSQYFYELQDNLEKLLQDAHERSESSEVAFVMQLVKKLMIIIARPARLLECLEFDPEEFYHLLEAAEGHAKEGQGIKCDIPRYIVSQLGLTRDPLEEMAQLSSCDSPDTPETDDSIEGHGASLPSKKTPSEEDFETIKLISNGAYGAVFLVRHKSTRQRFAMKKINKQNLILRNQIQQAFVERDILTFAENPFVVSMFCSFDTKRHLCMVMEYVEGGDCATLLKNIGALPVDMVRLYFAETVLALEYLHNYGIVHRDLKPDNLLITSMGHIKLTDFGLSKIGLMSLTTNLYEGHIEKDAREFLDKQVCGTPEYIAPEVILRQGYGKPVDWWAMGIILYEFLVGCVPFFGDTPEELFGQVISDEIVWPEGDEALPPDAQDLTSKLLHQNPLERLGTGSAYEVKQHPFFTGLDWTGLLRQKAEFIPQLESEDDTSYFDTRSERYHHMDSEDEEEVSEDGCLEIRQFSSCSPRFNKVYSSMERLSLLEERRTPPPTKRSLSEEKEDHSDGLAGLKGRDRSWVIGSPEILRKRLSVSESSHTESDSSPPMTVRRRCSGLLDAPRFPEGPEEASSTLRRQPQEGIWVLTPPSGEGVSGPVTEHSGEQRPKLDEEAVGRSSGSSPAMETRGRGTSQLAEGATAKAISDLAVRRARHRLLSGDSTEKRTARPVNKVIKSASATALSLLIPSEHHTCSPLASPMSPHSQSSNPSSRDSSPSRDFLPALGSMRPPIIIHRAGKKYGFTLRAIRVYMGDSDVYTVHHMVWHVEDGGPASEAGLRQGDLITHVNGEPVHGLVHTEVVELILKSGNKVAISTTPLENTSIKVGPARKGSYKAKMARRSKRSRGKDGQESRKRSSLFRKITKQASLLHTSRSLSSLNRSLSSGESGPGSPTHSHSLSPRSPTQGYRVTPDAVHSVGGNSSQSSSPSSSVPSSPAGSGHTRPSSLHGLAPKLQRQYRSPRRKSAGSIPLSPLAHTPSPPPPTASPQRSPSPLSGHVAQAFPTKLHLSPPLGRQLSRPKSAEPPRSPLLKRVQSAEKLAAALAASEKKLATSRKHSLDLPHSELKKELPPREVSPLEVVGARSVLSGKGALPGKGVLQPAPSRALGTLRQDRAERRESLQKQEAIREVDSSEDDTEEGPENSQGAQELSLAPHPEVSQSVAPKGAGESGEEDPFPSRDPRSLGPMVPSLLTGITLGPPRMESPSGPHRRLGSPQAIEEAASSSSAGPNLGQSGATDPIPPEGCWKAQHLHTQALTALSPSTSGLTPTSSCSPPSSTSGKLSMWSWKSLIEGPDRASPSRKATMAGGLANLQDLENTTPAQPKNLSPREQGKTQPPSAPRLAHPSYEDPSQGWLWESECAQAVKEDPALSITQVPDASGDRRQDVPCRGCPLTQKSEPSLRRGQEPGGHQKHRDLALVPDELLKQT
T2 sequence (Q9NZN5 whole entry, the tested form may be a part): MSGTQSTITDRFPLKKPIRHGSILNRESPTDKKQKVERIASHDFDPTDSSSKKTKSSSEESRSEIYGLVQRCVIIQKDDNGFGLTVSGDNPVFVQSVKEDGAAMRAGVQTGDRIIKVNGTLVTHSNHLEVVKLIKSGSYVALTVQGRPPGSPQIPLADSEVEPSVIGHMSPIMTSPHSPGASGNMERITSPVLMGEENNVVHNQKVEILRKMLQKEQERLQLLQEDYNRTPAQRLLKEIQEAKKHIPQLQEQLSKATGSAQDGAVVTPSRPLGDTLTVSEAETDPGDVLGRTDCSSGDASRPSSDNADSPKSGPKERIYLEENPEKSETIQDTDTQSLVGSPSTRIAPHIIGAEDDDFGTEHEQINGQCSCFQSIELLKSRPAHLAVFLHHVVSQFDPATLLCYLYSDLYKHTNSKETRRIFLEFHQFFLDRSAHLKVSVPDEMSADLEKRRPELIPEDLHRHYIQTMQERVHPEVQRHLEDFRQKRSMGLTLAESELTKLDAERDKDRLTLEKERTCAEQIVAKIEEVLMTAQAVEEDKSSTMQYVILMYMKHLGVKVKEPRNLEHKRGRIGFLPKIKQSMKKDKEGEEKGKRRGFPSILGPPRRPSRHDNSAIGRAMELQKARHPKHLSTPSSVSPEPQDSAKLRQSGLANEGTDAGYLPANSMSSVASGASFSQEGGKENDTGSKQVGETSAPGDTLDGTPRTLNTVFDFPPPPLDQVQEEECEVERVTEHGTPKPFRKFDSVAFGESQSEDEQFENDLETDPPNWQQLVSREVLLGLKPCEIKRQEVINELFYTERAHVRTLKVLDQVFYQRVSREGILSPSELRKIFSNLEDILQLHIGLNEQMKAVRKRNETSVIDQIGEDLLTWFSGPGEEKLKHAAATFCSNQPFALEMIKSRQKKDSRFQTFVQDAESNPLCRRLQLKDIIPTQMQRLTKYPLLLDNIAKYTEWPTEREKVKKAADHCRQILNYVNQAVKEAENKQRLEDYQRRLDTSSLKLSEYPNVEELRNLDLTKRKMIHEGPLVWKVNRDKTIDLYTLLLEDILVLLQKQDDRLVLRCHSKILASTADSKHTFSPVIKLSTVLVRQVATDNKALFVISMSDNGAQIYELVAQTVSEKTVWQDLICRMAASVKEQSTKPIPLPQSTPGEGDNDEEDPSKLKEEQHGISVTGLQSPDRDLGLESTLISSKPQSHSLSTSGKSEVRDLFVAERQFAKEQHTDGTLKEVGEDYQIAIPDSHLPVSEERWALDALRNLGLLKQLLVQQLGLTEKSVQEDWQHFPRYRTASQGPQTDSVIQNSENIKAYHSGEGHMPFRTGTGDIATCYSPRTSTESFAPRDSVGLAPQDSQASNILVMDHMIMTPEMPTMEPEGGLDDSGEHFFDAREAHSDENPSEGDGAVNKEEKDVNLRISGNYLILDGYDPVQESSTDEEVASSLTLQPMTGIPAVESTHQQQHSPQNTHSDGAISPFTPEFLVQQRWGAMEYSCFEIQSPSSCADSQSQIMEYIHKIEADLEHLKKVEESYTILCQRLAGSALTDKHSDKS

As for “SSPTYRALLLQGPSQSSSEA (Biotin-SSPTYRALLLQGPSQSSSEA)”, in assay [1], the Classification is 1 (A450 nm 0-1).

In the case of “KDSRPSFVGSSSGHTSTTL (Biotin-KDSRPSFVGSSSGHTSTTL) [CDw128B]”, the Classification is 3 (A450 nm 2-3) in assay [2]; 2 (A450 nm 1-2) in assay [3]; 5 (A450 nm of 4 more than 2× repeated) in assay [4] (PDZ KIAA807); 5 (A450 nm of 4 more than 2× repeated) in assay [4] (PDZ KIAA0807(S), PDZ Domain 1).

For the substance “SVV [CLASP-2 3-mer, acetylated peptide of the C-terminal 3 amino acids of CLASP-2]”, the “% binding” value in the assay with PSD-95 (setting [5]) is given as 75%; in the assay with PSD-95 (setting [6]), 59%; in the assay with PSD-95 (setting [7]), 55%; with PSD-95 (setting [8]), 55%; with PSD-95 (setting [9]) it was 82%; with PSD-95 (setting [10]) it was 63%. The “% binding” value with PSD-95 (biotinylated 20-mer KV1.3 10 uM, competitor 500 uM) was found to be 81%; with PSD-95 (biotinylated 20-mer KV1.3 10 uM, competitor 1000 uM), 50%; with DLG-1 (setting [5]), 72%; with DLG-1 (setting [6]) it was 45%; with DLG-1 (setting [7]), 51%; with DLG-1 (setting [8]) it was 46%. The results for the “% binding” value with DLG-1 (setting [9]) and with DLG-1 (setting [10]) were 61% and 59%, respectively. In the assay with PSD-95 (competitor 1 mM, 50-100-fold excess, summary of TABLE 6, PDZ not given), the “reduction of labeled ligand binding” value was “up to 50%”.

For “REVKFTSL [CD46 8-mer, unlabeled peptide of the C-terminal 8 amino acids of CD46]”, the “% binding” value in the assay with PSD-95 (setting [11]) worked out at 95%; in the assay with PSD-95 (setting [12]), 65%; with PSD-95 (setting [13]), 81%; with PSD-95 (setting [14]), 71%; with DLG-1 (setting [11]), 90%; with DLG-1 (setting [12]), 68%. The “% binding” value with DLG-1 (setting [13]) came out at 90%; with DLG-1 (setting [14]) it was 63%.
